Measurements taken from IntAct's records for PubMed 16739988.

B1: Gem-associated protein 5 (Homo sapiens), Q8TEQ6 (parent)
chain: MGQEPRTLPPSPNWYCARCSDAVPGGLFGFAARTSVFLVRVGPGAGESPGTPPFRVIGELVGHTERVSGFTFSHHPGQYNLCATSSDDGTVKIWDVETKTVVTEHALHQHTISTLHWSPRVKDLIVSGDEKGVVFCYWFNRNDSQHLFIEPRTIFCLTCSPHHEDLVAIGYKDGIVVIIDISKKGEVIHRLRGHDDEIHSIAWCPLPGEDCLSINQEETSEEAEITNGNAVAQAPVTKGCYLATGSKDQTIRIWSCSRGRGVMILKLPFLKRRGGGIDPTVKERLWLTLHWPSNQPTQLVSSCFGGELLQWDLTQSWRRKYTLFSASSEGQNHSRIVFNLCPLQTEDDKQLLLSTSMDRDVKCWDIATLECSWTLPSLGGFAYSLAFSSVDIGSLAIGVGDGMIRVWNTLSIKNNYDVKNFWQGVKSKVTALCWHPTKEGCLAFGTDDGKVGLYDTYSNKPPQISSTYHKKTVYTLAWGPPVPPMSLGGEGDRPSLALYSCGGEGIVLQHNPWKLSGEAFDINKLIRDTNSIKYKLPVHTEISWKADGKIMALGNEDGSIEIFQIPNLKLICTIQQHHKLVNTISWHHEHGSQPELSYLMASGSNNAVIYVHNLKTVIESSPESPVTITEPYRTLSGHTAKITSVAWSPHHDGRLVSASYDGTAQVWDALREEPLCNFRGHRGRLLCVAWSPLDPDCIYSGADDFCVHKWLTSMQDHSRPPQGKKSIELEKKRLSQPKAKPKKKKKPTLRTPVKLESIDGNEEESMKENSGPVENGVSDQEGEEQAREPELPCGLAPAVSREPVICTPVSSGFEKSKVTINNKVILLKKEPPKEKPETLIKKRKARSLLPLSTSLDHRSKEELHQDCLVLATAKHSRELNEDVSADVEERFHLGLFTDRATLYRMIDIEGKGHLENGHPELFHQLMLWKGDLKGVLQTAAERGELTDNLVAMAPAAGYHVWLWAVEAFAKQLCFQDQYVKAASHLLSIHKVYEAVELLKSNHFYREAIAIAKARLRPEDPVLKDLYLSWGTVLERDGHYAVAAKCYLGATCAYDAAKVLAKKGDAASLRTAAELAAIVGEDELSASLALRCAQELLLANNWVGAQEALQLHESLQGQRLVFCLLELLSRHLEEKQLSEGKSSSSYHTWNTGTEGPFVERVTAVWKSIFSLDTPEQYQEAFQKLQNIKYPSATNNTPAKQLLLHICHDLTLAVLSQQMASWDEAVQALLRAVVRSYDSGSFTIMQEVYSAFLPDGCDHLRDKLGDHQSPATPAFKSLEAFFLYGRLYEFWWSLSRPCPNSSVWVRAGHRTLSVEPSQQLDTASTEETDPETSQPEPNRPSELDLRLTEEGERMLSTFKELFSEKHASLQNSQRTVAEVQETLAEMIRQHQKSQLCKSTANGPDKNEPEVEAEQPLCSSQSQCKEEKNEPLSLPELTKRLTEANQRMAKFPESIKAWPFPDVLECCLVLLLIRSHFPGCLAQEMQQQAQELLQKYGNTKTYRRHCQTFCM

Variants of: B1
Conditions: with if4e_human EIF4E

Effect of a mutation on the interaction, decreasing interaction:
L265A
L997A;L998A
Y992A
L270A;K271A
